We go through one protein from publication PMC4888466.

Substrate in data set [1]: O=P(O)(O)O[C@H]1O[C@H](CO)[C@@H](O)[C@H](O)[C@H]1O
Nature of the data set: purified protein. Type of data set: biochemical, Caenorhabditis elegans. The settings on record: 1 mM UTP, 5 mM MgCl2, pH 7.5, 25°C.

Substrate in data set [2]: O=c1ccn([C@@H]2O[C@H](COP(=O)(O)OP(=O)(O)OP(=O)(O)O)[C@@H](O)[C@H]2O)c(=O)[nH]1
Put plainly: purified protein. The settings on record: 1 mM Glc-1-P, 5 mM MgCl2, pH 7.5, 25°C. Type of data set: biochemical, Caenorhabditis elegans.

B1: UGP-1 (Caenorhabditis elegans) (protein)
chain: MSNDQLKSKLREFFDRQPDQSEKAHQDSKIFEVLYSQFLENQHCIDWNSWKFLEEKHQVTLKDLEPFDKSRFNILNKLAVIKLNGGLGTTMGCSKAKSLVEVREGYTFMDLAVLEHQKMCEAHNVDTPLYLMNSFYTDEDTKKYLAEKGYSNVKTFVQSKCPRLDAETKLPIEDENEDWGDDAWCPPGHGNIFQSLQNSGVLDQLLADGREIIFVSNIDNTGANTDLQIVQLMLDKNVDYIMECTPKTQVDVKGGTLIDIGGRMMHLEMPQVPAENLPDFCSTKVFKIFNTNNIYVNLKAVKKLLPDIKSEIIVNKKTIRSREVLQLEFSIGGCIKNFDNALCVHVERKRFRPVKNLGDLLSLRSTLCDLDHSTFKVHHNHELGAPPVISLDPSIYNSVEVVDLKFPHPLVMDNCSEFAVVGDVTFGKNVKLSGKVTVNGKTESPGVVPDGTVLKDQEYIAE
Regarding B1, in the data set “purified protein [1]”, the Km amounted to 77.65 ± 7.73 µM, the kcat turned out to be 23 ± 0.65 s⁻¹ and the catalytic efficiency (kcat/Km) turned out to be 300000 ± 31000 M⁻¹ s⁻¹. In addition, in the data set “purified protein [2]”, the Km was determined as 13.85 ± 2.95 µM, the catalytic constant (kcat) is 20 ± 0.7 s⁻¹ and the kcat/Km came out at 1.45e+06 ± 310000 M⁻¹ s⁻¹.

In general, Km refers to the substrate concentration at which the rate is half of its maximum. Usually kcat stands for the maximal rate divided by the concentration of active sites. As usually defined, the kcat/Km is the turnover number divided by the Michaelis constant.
